{
  "source": "paper PMC1919377",
  "about": "“Cation induced differential effect on structural and functional properties of Mycobacterium tuberculosis α-Isopropylmalate synthase” (BMC Structural Biology, 2007)",
  "target": "the molecule itself",
  "experiment": "cross-linking",
  "data": [
    {"protein": "isolated TIM barrel domain of Mycobacterium tuberculosis α-isopropylmalate synthase (Arg47 to Phe457) (domain or fragment, also called catalytic TIM barrel domain; Band I; not shown: histidine tag, N-terminal, cleaved) RPFAEEVEPIRLRNRTWPDRVIDRAPLWCAVDLRDGNQALIDPMSPARKRRMFDLLVRMGYKEIEVGFPSASQTDFDFVREIIEQGAIPDDVTIQVLTQCRPELIERTFQACSGAPRAIVHFYNSTSILQRRVVFRANRAEVQAIATDGARKCVEQAAKYPGTQWRFEYSPESYTGTELEYAKQVCDAVGEVIAPTPERPIIFNLPATVEMTTPNVYADSIEWMSRNLANRESVILSLHPHNDRGTAVAAAELGFAAGADRIEGCLFGNGERTGNVCLVTLGLNLFSRGVDPQIDFSNIDEIRRTVEYCNQLPVHERHPYGGDLVYTAFSGSHQDAINKGLDAMKLDADAADCDVDDMLWQVPYLPIDPRDVGRTYEAVIRVNSQSGKGGVAYIMKTDHGLSLPRRLQIEF", "values": [
      {"measurement": "stoichiometry N", "value": 2}
    ]}
  ]
}
